# Measured values from patent publication US20170052184A1.
# Legend:
# [1] = target: HCV Core1-169 recombinant antigen (hepatitis C virus (HCV-1)) (UniProt P26664); experiment: sandwich EIA, 25 ng/ml core1-169; capture mAb C11-9
# [2] = target: HCV Core1-169 recombinant antigen (hepatitis C virus (HCV-1)) (UniProt P26664); experiment: sandwich EIA, 25 ng/ml core1-169; capture mAb 208A-110
# [3] = target: HCV Core1-169 recombinant antigen (hepatitis C virus (HCV-1)) (UniProt P26664); experiment: sandwich EIA, 25 ng/ml core1-169; capture NC capture mAb
# [4] = target: HCV Core1-169 recombinant antigen (hepatitis C virus (HCV-1)) (UniProt P26664); experiment: sandwich EIA, 25 ng/ml core1-169; capture mAb 208B-612-226
# [5] = target: HCV Core1-169 recombinant antigen (hepatitis C virus (HCV-1)) (UniProt P26664); experiment: sandwich EIA, 25 ng/ml core1-169; capture mAb 208A-207-271
# [6] = target: HCV Core1-169 recombinant antigen (hepatitis C virus (HCV-1)) (UniProt P26664); experiment: sandwich EIA, 25 ng/ml core1-169; capture mAb 208A-293
# [7] = target: HCV Core1-169 recombinant antigen (hepatitis C virus (HCV-1)) (UniProt P26664); experiment: sandwich EIA, 25 ng/ml core1-169; capture mAb 208A-692
# [8] = target: HCV Core1-169 recombinant antigen (hepatitis C virus (HCV-1)) (UniProt P26664); experiment: sandwich EIA, 25 ng/ml core1-169; capture mAb C11-7
# [9] = target: HCV Core1-169 recombinant antigen (hepatitis C virus (HCV-1)) (UniProt P26664); experiment: sandwich EIA, 25 ng/ml core1-169; capture mAb 208B-1096
# [10] = target: HCV Core1-169 recombinant antigen (hepatitis C virus (HCV-1)) (UniProt P26664); experiment: sandwich EIA, 25 ng/ml core1-169; capture mAb 208B-741
# [11] = target: HCV Core1-169 recombinant antigen (hepatitis C virus (HCV-1)) (UniProt P26664); experiment: sandwich EIA, 25 ng/ml core1-169; capture mAb 208B-395-334
# [12] = target: HCV Core1-169 recombinant antigen (hepatitis C virus (HCV-1)) (UniProt P26664); experiment: sandwich EIA, 25 ng/ml core1-169; capture mAb 208A-557
# [13] = target: HCV Core Peptide # 55 (aa 109-123) (hepatitis C virus); experiment: EIA on coated peptide 55 (well G7); IgG 2 ug/mL
# [14] = target: HCV Core Peptide # 50 (aa 99-113) (hepatitis C virus); experiment: peptide EIA summary (Table 11), peptide 50, aa 99-113
# [15] = target: HCV Core Peptide # 51 (aa 101-115) (hepatitis C virus); experiment: EIA on coated peptide 51 (well C7); IgG 2 ug/mL
# [16] = target: HCV Core Peptide # 50 (aa 99-113) (hepatitis C virus); experiment: EIA on coated peptide 50 (well B7); IgG 2 ug/mL
# [17] = target: HCV Core Peptide # 53 (aa 105-119) (hepatitis C virus); experiment: peptide EIA summary (Table 11), peptide 53, aa 105-119
# [18] = target: HCV Core Peptide # 54 (aa 107-121) (hepatitis C virus); experiment: peptide EIA summary (Table 11), peptide 54, aa 107-121
# [19] = target: HCV Core Peptide # 51 (aa 101-115) (hepatitis C virus); experiment: peptide EIA summary (Table 11), peptide 51, aa 101-115
# [20] = target: HCV Core Peptide # 53 (aa 105-119) (hepatitis C virus); experiment: EIA on coated peptide 53 (well E7); IgG 2 ug/mL
# [21] = target: HCV Core Peptide # 49 (aa 97-111) (hepatitis C virus); experiment: EIA on coated peptide 49 (well A7); IgG 2 ug/mL
# [22] = target: HCV Core Peptide # 55 (aa 109-123) (hepatitis C virus); experiment: peptide EIA summary (Table 11), peptide 55, aa 109-123
# [23] = target: HCV Core Peptide # 49 (aa 97-111) (hepatitis C virus); experiment: peptide EIA summary (Table 11), peptide 49, aa 97-111
# [24] = target: HCV Core Peptide # 48 (aa 95-109) (hepatitis C virus); experiment: EIA on coated peptide 48 (well H6); IgG 2 ug/mL
# [25] = target: HCV Core Peptide # 54 (aa 107-121) (hepatitis C virus); experiment: EIA on coated peptide 54 (well F7); IgG 2 ug/mL
# [26] = target: HCV Core Peptide # 52 (aa 103-117) (hepatitis C virus); experiment: EIA on coated peptide 52 (well D7); IgG 2 ug/mL
# [27] = target: HCV Core Peptide # 48 (aa 95-109) (hepatitis C virus); experiment: peptide EIA summary (Table 11), peptide 48, aa 95-109
# [28] = target: HCV Core Peptide # 52 (aa 103-117) (hepatitis C virus); experiment: peptide EIA summary (Table 11), peptide 52, aa 103-117
# Chain of HCV Core1-169 recombinant antigen (hepatitis C virus (HCV-1)) (P26664 1-169, tags left off): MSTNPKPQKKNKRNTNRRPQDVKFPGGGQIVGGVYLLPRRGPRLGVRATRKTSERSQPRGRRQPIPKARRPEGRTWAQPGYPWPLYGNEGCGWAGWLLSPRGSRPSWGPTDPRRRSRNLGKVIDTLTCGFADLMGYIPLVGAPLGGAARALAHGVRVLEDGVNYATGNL
Substance,OD492 nm [1] [OD492],OD492 nm [2] [OD492],OD492 nm [3] [OD492],OD492 nm [4] [OD492],OD492 nm [5] [OD492],OD492 nm [6] [OD492],OD492 nm [7] [OD492],OD492 nm [8] [OD492],OD492 nm [9] [OD492],OD492 nm [10] [OD492],OD492 nm [11] [OD492],OD492 nm [12] [OD492],other results
anti-HCV Core C11-9 monoclonal antibody,2.75,2.59,0.62,0.63,0.44,1.84,0.58,1.91,0.82,2.32,0.95,1.18,–
anti-HCV Core C11-7 monoclonal antibody,1.04,1.78,0.22,0.53,0.22,1.55,0.18,0.23,0.45,1.76,0.46,0.64,–
negative control (NC) monoclonal antibody,0.14,0.16,0.18,0.22,0.17,0.23,0.15,0.17,0.21,0.18,0.22,0.18,–
C11-3 (ABT-4) monoclonal antibody,–,–,–,–,–,–,–,–,–,–,–,–,OD (A492 nm) [13]: 0.06 OD; OD (A492 nm) [14]: 1.03 OD (A492 nm); OD (A492 nm) [15]: 1 OD; OD (A492 nm) [16]: 0.97 OD; OD (A492 nm) [17]: 0.36 OD (A492 nm); OD (A492 nm) [18]: 0.08 OD (A492 nm); OD (A492 nm) [19]: 1.01 OD (A492 nm); OD (A492 nm) [20]: 0.36 OD; OD (A492 nm) [21]: 0.97 OD; OD (A492 nm) [22]: 0.08 OD (A492 nm); OD (A492 nm) [23]: 1.03 OD (A492 nm); OD (A492 nm) [24]: 0.81 OD; OD (A492 nm) [25]: 0.08 OD; OD (A492 nm) [26]: 0.96 OD; OD (A492 nm) [27]: 0.95 OD (A492 nm); OD (A492 nm) [28]: 1.01 OD (A492 nm)
